In paper PMC4431850 (PLoS ONE, 2015):

What was measured:
[1] = target: the molecule itself; assay: SEC-MALS; Superdex200 10/30 coupled to light scattering (miniDAWN TREOS) and refractive index detectors; 20 mM sodium phosphate pH 7.5, 2 mM DTT; oligomeric state
[2] = target: T1, Cul3^NTD, N-terminal region (residues 20-381) of cullin 3 (UniProt Q13618 20-381); assay: ITC; BTB domain (55 μM as tetramer) titrated into Cul3^NTD (25 μM); 22°C; 20 mM NaP, 200 mM NaCl, 2 mM DTT pH 7.5; single-binding site model; conditions: both partners purified
T1 construct: cullin 3, N-terminal region, residues 20-381; Printed Mw 42 kDa; source: expressed and purified according to Balasco et al. [19]; recombinant, bacterial system

[3] = target: T1, Cul3^NTD, N-terminal region (residues …); assay: SEC; BTB domain mixed with Cul3^NTD at 4°C in 20 mM NaP, 200 mM NaCl, 2 mM DTT pH 7.5; Superdex 200 10/30; SDS-PAGE of the peaks; conditions: both partners purified
[4] = target: the molecule itself; assay: SEC-MALS; light scattering experiments, data not shown; oligomeric state

T1 sequence (Q13618 20-381): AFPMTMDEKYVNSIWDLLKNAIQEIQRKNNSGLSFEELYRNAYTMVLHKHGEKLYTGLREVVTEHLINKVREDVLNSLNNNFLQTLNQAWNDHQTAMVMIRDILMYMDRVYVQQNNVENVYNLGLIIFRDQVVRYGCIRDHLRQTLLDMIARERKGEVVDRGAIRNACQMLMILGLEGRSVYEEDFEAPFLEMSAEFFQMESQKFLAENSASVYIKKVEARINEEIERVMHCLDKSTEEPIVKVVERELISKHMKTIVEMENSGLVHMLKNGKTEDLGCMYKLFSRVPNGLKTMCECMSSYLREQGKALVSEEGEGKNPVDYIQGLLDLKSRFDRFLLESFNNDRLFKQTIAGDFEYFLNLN

Binder	stoichiometry N [1]	stoichiometry N [4]	also measured
BTB domain of KCTD15 (KCTD15^BTB) (domain or fragment, human, UniProt Q96SI1-1 61-157, looked up, KCTD15, human, BTB domain, residues 61-157 of UniProt Q96SI1-1; cloned NdeI/EcoRI into pET28b+; Tetramer by light scattering (47.1 kDa against 47.5 kDa expected); source: E. coli BL21(DE3) pLys-S co-transformed with pREP4 GroESL, purified (Ni-NTA, Superdex200)) DVGGHMYTSSLATLTKYPDSRISRLFNGTEPIVLDSLKQHYFIDRDGEIFRYVLSFLRTSKLLLPDDFKDFSLLYEEARYYQLQPMVRELERWQQEQ	4		
chimeric BTB domain CHIM11/12^BTB (KCTD11^BTB with residues 42-63 replaced by residues 61-80 of KCTD12^BTB) (domain or fragment, UniProt Q693B1-2 15-41, looked up, KCTD11 BTB domain (15-116 of the long form, isoform 2) up to the replaced α2β3 loop (42-63); numbers count on: the long form (isoform 2); KCTD12, residues 61-80, predicted α2β3 loop; KCTD11 BTB domain (15-116 of the long form, isoform 2) after the replaced α2β3 loop (42-63); also called chimeric variant of KCTD11; source: E. coli, purified (procedure used for KCTD11 [5])) GPVTLNVGGTLYSTTLETLTRFPDSMLWRMFTQQQPQELARDSKGRFFIDRDGKAFRHILNFLRLGRLDLPRGYGETALLRAEADFYQIRPLLDALRELE	4		
BTB domain of KCTD11 (KCTD11^BTB) (domain or fragment, UniProt Q693B1-2 15-116, looked up, KCTD11, BTB domain, residues 15-116 of the long form of the protein (isoform 2, UniProt Q693B1-2); numbers count on: the long form (isoform 2); Tetramer (~46 kDa); source: E. coli BL21(DE3), purified (procedure of Correale et al. [5])) GPVTLNVGGTLYSTTLETLTRFPDSMLGAMFRAGTPMPPNLNSQGGGHYFIDRDGKAFRHILNFLRLGRLDLPRGYGETALLRAEADFYQIRPLLDALRELE		4	Kd [2]: 25 ± 2 nM; dH [2]: -21 ± 0.1 kcal/mol; stoichiometry N [2]: ~0.25 KCTD tetramers per Cul3^NTD; stoichiometry N [3]: 1 BTB chains : Cul3^NTD (4:4)
BTB domain of KCTD12 (KCTD12^BTB) (domain or fragment, UniProt Q96CX2 27-131, looked up, KCTD12, BTB domain, residues 27-131 of UniProt Q96CX2; Tetramer (~46 kDa); source: E. coli BL21(DE3), purified (procedure of Correale et al. [24] and Errington et al. [25])) AEPPLFPDIVELNVGGQVYVTRRCTVVSVPDSLLWRMFTQQQPQELARDSKGRFFLDRDGFLFRYILDYLRDLQLVLPDYFPERSRLQREAEYFELPELVRRLGA		4	
BTB domain of KCTD6 (KCTD6^BTB) (domain or fragment, UniProt Q8NC69 10-110, looked up, KCTD6, BTB domain, residues 10-110 of UniProt Q8NC69; Tetramer (~46 kDa); source: E. coli BL21(DE3), purified (protocol of Pirone et al. [23])) MTDPVTLNVGGHLYTTSLTTLTRYPDSMLGAMFGGDFPTARDPQGNYFIDRDGPLFRYVLNFLRTSELTLPLDFKEFDLLRKEADFYQIEPLIQCLNDPKP		4	
